# Experimental data: article PMC12884772, “Macrophagic Sclerostin Loop2‐ApoER2 Interaction Required by Sclerostin for Cardiovascular Protective Action” (Advanced Science, 2025)
# Columns and labels:
# [1] = target: His-sclerostin loop2; assay: BLI; Octet RED96e; Figure 6B, 'ApoER2 to sclerostin' and 'to sclerostin loop2'; the methods tell of biotin-ApoER2 loaded on streptavidin biosensors, PBS with 0.02% Tween 20; partner loaded in this panel not given
# [2] = target: full-length His-sclerostin (not stated (recombinant human and mouse sclerostin used in the paper)) (UniProt Q99P68); assay: as above
# Chain of full-length His-sclerostin (not stated (recombinant human and mouse sclerostin used in the paper)) (Q99P68 24-211): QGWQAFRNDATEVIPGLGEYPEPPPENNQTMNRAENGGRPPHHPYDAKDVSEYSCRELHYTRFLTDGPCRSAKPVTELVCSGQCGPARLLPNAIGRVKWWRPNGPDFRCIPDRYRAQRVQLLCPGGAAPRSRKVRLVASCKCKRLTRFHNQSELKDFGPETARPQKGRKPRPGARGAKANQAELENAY
# [3] = target: ApoER2 protein (R&D, 3520-AR) (UniProt Q14114); assay: BLI; Octet RED96e; Figure S6B, 'sclerostin to ApoER2'; partner loaded in this panel not given
# Chain of ApoER2 protein (R&D, 3520-AR) (Q14114 42-826): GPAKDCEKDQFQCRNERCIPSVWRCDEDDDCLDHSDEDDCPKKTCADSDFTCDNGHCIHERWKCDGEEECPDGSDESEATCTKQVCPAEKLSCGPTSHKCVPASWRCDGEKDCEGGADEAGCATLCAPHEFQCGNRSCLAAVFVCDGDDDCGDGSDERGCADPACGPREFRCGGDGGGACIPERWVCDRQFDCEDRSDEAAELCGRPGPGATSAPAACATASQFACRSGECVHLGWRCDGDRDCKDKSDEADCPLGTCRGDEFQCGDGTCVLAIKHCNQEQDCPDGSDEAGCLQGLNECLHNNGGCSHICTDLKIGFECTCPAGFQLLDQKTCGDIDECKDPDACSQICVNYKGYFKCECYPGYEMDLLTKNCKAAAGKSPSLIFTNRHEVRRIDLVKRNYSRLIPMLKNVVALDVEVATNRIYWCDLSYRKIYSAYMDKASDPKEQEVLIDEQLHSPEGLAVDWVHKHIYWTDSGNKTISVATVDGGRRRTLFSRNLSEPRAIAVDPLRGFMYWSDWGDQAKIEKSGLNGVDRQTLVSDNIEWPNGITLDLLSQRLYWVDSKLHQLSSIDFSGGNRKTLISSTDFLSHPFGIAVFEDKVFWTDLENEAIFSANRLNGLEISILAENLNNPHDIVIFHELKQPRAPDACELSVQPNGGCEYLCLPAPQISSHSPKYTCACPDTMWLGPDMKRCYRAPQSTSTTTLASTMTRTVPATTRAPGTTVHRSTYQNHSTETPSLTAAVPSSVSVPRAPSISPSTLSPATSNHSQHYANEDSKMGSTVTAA
# Chain of full-length His-sclerostin (Q99P68 24-211): as the sequence (Q99P68 24-211) above
Kd [1],Kd [2],Kd [3],Substance
23 nM,3.8 nM,,"ApoER2 protein (R&D, 3520-AR) (from UniProt Q14114 42-826) (receptor)"
,,2.1 nM,full-length His-sclerostin (from UniProt Q99P68 24-211) (natural protein)
